# Test results from article PMC8501996.
# Biological target: hRPA1;hRPA2;hRPA3 (Homo sapiens;Homo sapiens;Homo sapiens, UniProt P27694;P15927;P35244 1-616;1-270;1-121, ||)
# Assay: FRET kinetics
# hRPA1;hRPA2;hRPA3, sequence (P27694 whole entry, chain 1 of 3): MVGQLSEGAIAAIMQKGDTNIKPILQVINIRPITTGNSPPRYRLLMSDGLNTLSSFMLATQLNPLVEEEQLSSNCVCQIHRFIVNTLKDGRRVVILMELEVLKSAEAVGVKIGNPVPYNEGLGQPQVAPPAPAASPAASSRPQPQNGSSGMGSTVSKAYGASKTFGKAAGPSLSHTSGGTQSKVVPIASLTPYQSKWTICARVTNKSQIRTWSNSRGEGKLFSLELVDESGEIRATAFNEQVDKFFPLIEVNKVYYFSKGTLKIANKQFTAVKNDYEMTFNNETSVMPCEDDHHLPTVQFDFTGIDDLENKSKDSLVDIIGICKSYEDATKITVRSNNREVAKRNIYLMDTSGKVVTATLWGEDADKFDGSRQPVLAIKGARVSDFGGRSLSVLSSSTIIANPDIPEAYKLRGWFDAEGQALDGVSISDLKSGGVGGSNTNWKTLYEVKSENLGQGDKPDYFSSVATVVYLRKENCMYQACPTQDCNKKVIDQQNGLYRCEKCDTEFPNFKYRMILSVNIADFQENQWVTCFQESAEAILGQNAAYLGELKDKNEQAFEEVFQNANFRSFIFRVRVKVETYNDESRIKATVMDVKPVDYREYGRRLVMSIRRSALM
# hRPA1;hRPA2;hRPA3, sequence (P15927 whole entry, chain 2 of 3): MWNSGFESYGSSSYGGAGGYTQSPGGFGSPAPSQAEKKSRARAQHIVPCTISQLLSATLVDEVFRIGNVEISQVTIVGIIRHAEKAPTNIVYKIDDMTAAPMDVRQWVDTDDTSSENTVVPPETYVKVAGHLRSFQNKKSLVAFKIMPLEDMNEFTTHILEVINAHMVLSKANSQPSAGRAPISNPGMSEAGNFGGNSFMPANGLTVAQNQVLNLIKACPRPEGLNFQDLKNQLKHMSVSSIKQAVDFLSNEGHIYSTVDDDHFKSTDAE
# hRPA1;hRPA2;hRPA3, sequence (P35244 whole entry, chain 3 of 3): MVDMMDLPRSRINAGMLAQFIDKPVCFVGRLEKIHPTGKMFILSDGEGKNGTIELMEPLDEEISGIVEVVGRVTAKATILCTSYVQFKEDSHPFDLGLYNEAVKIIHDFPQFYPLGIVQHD
binder,measurement,value
"H69-Q2 (structured_DNA, 6FAM-dT in 4th repeat (T23); TAMRA-dT in 8th repeat (T47)) DNA: GGGTTAGGGTTAGGGTTAGGGTTAGGGTTAGGGTTAGGGTTAGGGTTAGGGTTAGGGTTAGGGTTAGGG",binding result,binds
